Each block holds one binder with its values, some of them ahead of it.
How the values were obtained:
MBP-REV7^WT = molecular target: T1, MBP-REV7^WT (human, UniProt Q9UI95 1-211); assay: pull-down; MBP pull-down of GST-SHLD3^1-83 with MBP-REV7^WT or MBP-REV7^core; conditions: both partners purified
T1 construct: REV7 (MAD2L2), human; 211 residues printed; wild type; source: E. coli LOBSTR, purified; not shown: hexahistidine-MBP, N-terminal, kept

REV7^WT = molecular target: T2, REV7^WT (human, UniProt Q9UI95 1-211); assay: SPR; SHLD3^1-62 or REV3^1871-2014 immobilised on an SCR HC30M chip by EDC-NHS coupling; REV7^WT or REV7^R124A injected in two-fold dilutions; buffer B with 0.05% Tween 20; KD estimated from plateau values at the end of the dissociation phase; conditions: both partners purified
T2 construct: REV7 (MAD2L2), human, HORMA domain protein; 211 residues printed; wild type; also called WT-REV7; MAD2L2; source: E. coli LOBSTR, purified (metal chelating column, tag cleavage, SEC)
T2 sequence (Q9UI95 whole entry, the tested form may be a part): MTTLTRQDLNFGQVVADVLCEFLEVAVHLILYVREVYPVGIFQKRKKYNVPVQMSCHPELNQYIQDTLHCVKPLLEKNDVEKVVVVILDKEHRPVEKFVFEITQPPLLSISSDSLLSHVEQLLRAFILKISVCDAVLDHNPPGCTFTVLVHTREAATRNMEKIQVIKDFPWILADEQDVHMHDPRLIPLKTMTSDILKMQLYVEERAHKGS

REV7^R124A [1] = molecular target: T3, REV7^R124A (human, UniProt Q9UI95 1-211, R124A); assay: as above; conditions: both partners purified
T3 construct: REV7 (MAD2L2), human; 211 residues printed; R124A; also called R124A-REV7; source: E. coli LOBSTR, purified (metal chelating column, tag cleavage, SEC)
T3 sequence (Q9UI95 whole entry R124A): as the sequence (Q9UI95 whole entry, the tested form may be a part) above, with R124A counted along it

REV7^R124A [2] = molecular target: REV7^R124A (human, UniProt Q9UI95 1-211, R124A); assay: SPR

T1 sequence (Q9UI95 whole entry): as the sequence (Q9UI95 whole entry, the tested form may be a part) above

binding result (MBP-REV7^WT): binds
B1: GST-SHLD3^1-83 (domain or fragment, human, UniProt Q6ZNX1 1-83, looked up)
chain: MTTEVILHYRPCESDPTQLPKIAEKAIQDFPTRPLSRFIPWFPYDGSKLPLRPKRSPPVISEEAAEDVKQYLTISEHDAKSHS
notes: SHLD3, human, residues 1-83; also called SHLD3^RBM; source: E. coli LOBSTR, purified; not shown: GST, N-terminal, kept

binding result (REV7^WT): binds
B2: REV3^1871-2014 (domain or fragment, human, UniProt O60673 1871-2014, looked up)
chain: TPRTANILKPLMSPPSREEIMATLLDHDLSETIYQEPFCSNPSDVPEKPREIGGRLLMVETRLANDLAEFEGDFSLEGLRLWKTAFSAMTQNPRPGSPLRSGQGVVNKGSSNSPKMVEDKKIVIMPCKCAPSRQLVQVWLQAKE
notes: REV3, human, residues 1871-2014 (holds RBM1 1875-1896 and RBM2 1991-2012); The general protocol cleaves the tag; source: E. coli LOBSTR, purified

binding result (REV7^R124A [1]): binds
Kd (REV7^WT): ~38 nM
Kd (REV7^R124A [2]): ~67 nM
B3: SHLD3^1-62 (domain or fragment, human, UniProt Q6ZNX1 1-62, looked up)
chain: MTTEVILHYRPCESDPTQLPKIAEKAIQDFPTRPLSRFIPWFPYDGSKLPLRPKRSPPVISE
notes: SHLD3, human, residues 1-62; The general protocol cleaves the tag; also called SHLD3^RBM; source: E. coli LOBSTR, purified
